Results from the supplement of paper PMC12764529.
± gives the half width of the 95% confidence interval.

Assay: folding stability dG unfold from chymotrypsin proteolysis; higher = more stable
Procedure, shortened: (§1)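 Designed mini-proteins with no cysteine and under 80 residues were kept only if AlphaFold2 dimer inter-PAE was above 15. In a PA-tagged cDNA display construct, they were digested with trypsin and chymotrypsin and then sequenced. K50 was inferred by Bayesian fitting of counts, and unfolding free energy was derived per protease or combined against a sequence-predicted unfolded-state K50 and a shared folded-state K50.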

Sequence	folding stability dG unfold
SAGGSAGGSSPEENLETQVETELLEEFKPGDKPRKLVKTTVTYPDGTTKEEIVTIDENGNILLSAGGSAGGS [r12_755_JUSTAS]	-0.117 ± 0.065 kcal/mol
SAGGSAGGSKKIKITVVVPKEEAEKLLKELEKAGYKIVSVEKKEIPENELVVIEIVIEKPEELSAGGSAGGS [r12_445_TrROS_Hall]	4.13 ± 0.24 kcal/mol
SAGGSAGGSVESATTTITITASLTPEEVEEIIEELKKKGLNVKKVEIEREPETGSVTITVTVNPSAGGSAGG [r6_514_JUSTAS]	2.92 ± 0.075 kcal/mol
SAGGSAGGSAEELAKKLAEELRKEHNLEVTVEEVELKEEEIPGLKFKPGQKLLVITVKKKDSAGGSAGGSAG [r3_229_TrROS_Hall]	0.227 ± 0.069 kcal/mol
SAGGSMTIVVETPEEVEKAIKALEDELKKKGIKKGDKIKKIKVEKNENGKLTVTIEVDGKKIKIEVSAGGSA [r2_120_TrROS_Hall]	2.02 ± 0.25 kcal/mol
SAGGSAGGSAPLIELRPPEEPLFLPLENLLGRGIPLEELAKLLEKLTGRKVEPVKPGYIRTGSAGGSAGGSA [r18_7_TrMRF]	-0.128 ± 0.25 kcal/mol
SAGGNLMIRVELYRPKPDPEGEWQKREVTLPMPPGEPIEELIDELRPPGWVIEIDIFDNGKPIREYYIRSAG [r5_278_TrROS]	2.86 ± 0.14 kcal/mol
KKKKKKKKKKKKKEKVKVRIRIRLKVKDKETGEWKEIEVEIEIEMSKEEAEEIAKKLAEKYNFEIVEIEIES [r1_488_TrROS_Hall]	3.46 ± 0.19 kcal/mol
SAGGSAGGSAGMKVVVELEVTFDSEEEAEAVAKAIAEELGSEDVVVKVIRKPVELGPGLKSAGGSAGGSAGG [r17_285_JUSTAS]	0.891 ± 0.031 kcal/mol
SAGGSAGGSEWTIESIRPRPDGSLIARVRPEGVNVSVEVEFDTLEELLAFAKLLEELGGKVTGSAGGSAGGS [r20_177_TrMRF]	1.98 ± 0.023 kcal/mol
SAGGSAGGSAGGNFKITEPVEEYPNPNGNPIKVFTFKNPDDGPEFTFIFMPNGNWQFIPSAGGSAGGSAGGS [r10_1123_TrROS]	0.797 ± 0.14 kcal/mol
SAGGSAGGSAGGMLFHFEIKDPNSDKEYEVLVEKPPSGKVLVTILKDNKEEVKVLPLELFSAGGSAGGSAGG [r11_952_JUSTAS]	-0.393 ± 0.42 kcal/mol
SAGGSAETITVMIPPNFLKKLKDQGIKIPPGYPWITITVTYNPDGKIKIKVQIQPMPPVSPEDMKKSAGGSA [r15_322_TrROS]	2.72 ± 0.3 kcal/mol
SMKIKIKVETNPNGEKKIEIEIELKEEDIEFDEGMTLEERKEKLRELAEELAKKLKEEGKEVKIVEIEVESA [r9_751_TrROS_Hall]	2.27 ± 0.048 kcal/mol
SAGGSAGGSKMRERTITFPNAKITIWYHPDGNVRMEVMNPGNGKPKREIWMKPGDIEEILKKFSAGGSAGGS [r20_129_TrROS]	2.58 ± 0.038 kcal/mol
SAGGSAGGIKYRVMVHNPESGRWHRIDDIEIDPPDGRIKIRFPGNGKEITIPPGYPIMISPDMLSAGGSAGG [r6_885_TrROS]	0.793 ± 0.17 kcal/mol
SAGGMYKVKIYFEDTKEEIEIEASAEEVLEAIKNGDLDALKKLFPGAKIVKIEVEKVEPEPEEEEEEESAGG [r13_629_TrROS_Hall]	3.48 ± 0.23 kcal/mol
SAGKKTIMIFIPGNMPLDTLKSALRNLPPNVEIHIMYPGQMQTITYDPDDIEIELPPGFPNFYIMIEVPSAG [r5_373_TrROS]	2.646 ± 0.017 kcal/mol
SAGGSAGGSKKVKIIEIDLKDMSPEEILELIKKEKVDAIIIKSDTPEAKRLAEKLKEAGFKVISAGGSAGGS [r12_610_TrROS_Hall]	2.36 ± 0.055 kcal/mol
SAGGSAGGSAGGSMPIVRIEVKHPDQKHTFFIPPDMPLEDIADELASQYPNVEVKIEPVSAGGSAGGSAGGS [r4_155_TrROS]	1.33 ± 0.11 kcal/mol
SAGGSAGGSAGLPGAEKARKPKPKVKVKVTLTVLPDGTLVLRVTFEDGTTKTITLKLHPDLLSAGGSAGGSA [r18_192_TrMRF]	3.55 ± 0.11 kcal/mol

Assay: folding stability dG unfold (combined trypsin and chymotrypsin); higher = more stable
Procedure, shortened: as §1

Sequence	folding stability dG unfold
SPGMEPIREWELKLPDPDGEDKDLEVEMYRMPEGNYYVDISIPNGKKIPFPMPPDEPITPDDIRNFIKKFSA [r9_616_TrROS]	0.394 ± 0.28 kcal/mol
SAGGSPPLPLKITKITDTRYERNPDGQGWVKIEIRLPENGKPITIPVQADSPEQAEYAVKEALKKFSAGGSA [r2_248_TrROS]	-0.31 ± 0.36 kcal/mol
SAAPDEVVTLEFTVPVVTTFEPGAPYVAPARLTVTFHPPDRVEIRLVSPDGRLVATRTVPPSVLLSEVISAG [r14_559_TrMRF]	1.88 ± 0.081 kcal/mol
SAGGMKPGETWRIRTPGKTITIEVKDGKITVTVEENGKKKTIVVEAETEEEALEALRSIPGLEIEKVSAGGS [r16_583_TrROS_Hall]	1.61 ± 0.16 kcal/mol
SAGGMAVPVKVRDPVNGNWKTLDNIESIDEVVEVDPTDGSRSYFVKLKGSGKWYVVDDPEAVEAAKGSAGGS [r8_206_TrMRF]	1.12 ± 0.13 kcal/mol
SAGGSAGGSGVSSVRPVALPGGRVLVLEYFSSTGKVRVTTLTVGDGRPARAESVTPVTPESILSAGGSAGGS [r12_961_JUSTAS]	0.495 ± 0.09 kcal/mol
SAGGSGSTTPETRTEPSPGGTTTEVRTDVHTLPDAETVEITVTRGGRTITLTASPAEAATLRVTPGASAGGS [r8_257_JUSTAS]	-0.436 ± 0.51 kcal/mol
SAGGSAGGSDPSATISFSFPLPDGSTININITITDEGSGPRIEIDITVTDANNNTAPAKFTIDSAGGSAGGS [r12_33_TrMRF]	1.65 ± 0.11 kcal/mol
GMTIVPPSSPVTDSSGNYEEYPDSQLYKDSSTGKPIIAFPMSPEELAAGDPAALARREALAKEYGLPEIEPS [r1_438_JUSTAS]	0.0139 ± 0.25 kcal/mol
SMKKKVVVKAKIEKIRPDGGKEELEEVFVMEVSPDDPEEIKAAIDEAIEALKKAYPNIKKIEIEEVIIEDSA [r9_436_TrMRF]	3.79 ± 0.36 kcal/mol
SAGGSAGGSVKPGQEIEVRVELTYDEETGELTIRREVVNKETGELIAEEEITISLEDLPPELLSAGGSAGGS [r12_145_TrROS_Hall]	1.63 ± 0.076 kcal/mol
SAGGSAKKYIVLAKIKEVKVTKTYKTKNGKKVKVTVKVEIKVEPVKVFKIKKDKNGNWKIEPGEVLSAGGSA [r15_162_TrROS_Hall]	3.14 ± 0.28 kcal/mol
SAGGSAGGSAGGMIEKIEVTKLPDGTYKVTITIPLPNGPVITKTITIPPSETVEDAIAKLSAGGSAGGSAGG [r7_54_JUSTAS]	2.31 ± 0.046 kcal/mol
SAGGSAGGSAGLPENVKLVKVTVTITYPNGEKETIPVVAPVPVLEKLLSLPGLPVSVTDESAGGSAGGSAGG [r17_313_TrMRF]	0.333 ± 0.12 kcal/mol
SAGGSAGGSAGKLYIIRIKGKKIILSEDEVEKLKKKYPNAEIIPFKSKEDAEKALKKLKESAGGSAGGSAGG [r11_60_TrROS_Hall]	2.52 ± 0.13 kcal/mol
SAGGSAGGSWGTISIRIEFNFMAFDPGLGQFSMFPMEVYISIPIEIPPPPPPPKPKYDNGKPKSAGGSAGGS [r12_140_TrROS]	3.78 ± 0.29 kcal/mol
SAGGSAGGSAGPIIPPNFEVVDVFETETSYYILVKNPETGRYYVARYDPLTGKIEVFEVSSAGGSAGGSAGG [r11_896_TrMRF]	4.52 ± 0.1 kcal/mol
SMLKEIPITVPEEGEVVTVNIEELAKEQGLDPNNVTVTVTSSGPGKVYKITISSNGITITEVGNVPTALLSA [r9_819_JUSTAS]	0.717 ± 0.081 kcal/mol
SAGARIVPIKINLKWNPDNGQLEVPIEMYVNNHPVEMEARFDPEDPGKIEFEITYPGNGQEIRASIPLPSAG [r14_178_TrROS]	0.467 ± 0.26 kcal/mol
SASSVEKEFDSIEDALKAIKEALAKKVPVKMKMDPETVKELKKAGFPDIDVTKEKLPNGNEYYLLELLFSAG [r14_127_JUSTAS]	1.15 ± 0.058 kcal/mol
SAGKPEWKLVETIEVTIEVPPGVTVEEIEKKLLEALKEKGIKEVKIEVTYDKENKTITVRVEVLVKKEKSAG [r5_924_TrROS_Hall]	1.66 ± 0.26 kcal/mol

Sequence	folding stability dG unfold
SAGGSAGGSSPEENLETQVETELLEEFKPGDKPRKLVKTTVTYPDGTTKEEIVTIDENGNILLSAGGSAGGS [r12_755_JUSTAS]	-0.0945 ± 0.1 kcal/mol
SAGGSAGGSKKIKITVVVPKEEAEKLLKELEKAGYKIVSVEKKEIPENELVVIEIVIEKPEELSAGGSAGGS [r12_445_TrROS_Hall]	3.65 ± 0.31 kcal/mol
SAGGSAGGSVESATTTITITASLTPEEVEEIIEELKKKGLNVKKVEIEREPETGSVTITVTVNPSAGGSAGG [r6_514_JUSTAS]	3.14 ± 0.093 kcal/mol
SAGGSAGGSAEELAKKLAEELRKEHNLEVTVEEVELKEEEIPGLKFKPGQKLLVITVKKKDSAGGSAGGSAG [r3_229_TrROS_Hall]	0.604 ± 0.13 kcal/mol
SAGGSMTIVVETPEEVEKAIKALEDELKKKGIKKGDKIKKIKVEKNENGKLTVTIEVDGKKIKIEVSAGGSA [r2_120_TrROS_Hall]	1.63 ± 0.3 kcal/mol
SAGGSAGGSAPLIELRPPEEPLFLPLENLLGRGIPLEELAKLLEKLTGRKVEPVKPGYIRTGSAGGSAGGSA [r18_7_TrMRF]	-0.161 ± 0.44 kcal/mol
SAGGNLMIRVELYRPKPDPEGEWQKREVTLPMPPGEPIEELIDELRPPGWVIEIDIFDNGKPIREYYIRSAG [r5_278_TrROS]	2.34 ± 0.35 kcal/mol
KKKKKKKKKKKKKEKVKVRIRIRLKVKDKETGEWKEIEVEIEIEMSKEEAEEIAKKLAEKYNFEIVEIEIES [r1_488_TrROS_Hall]	3.28 ± 0.21 kcal/mol
SAGGSAGGSAGMKVVVELEVTFDSEEEAEAVAKAIAEELGSEDVVVKVIRKPVELGPGLKSAGGSAGGSAGG [r17_285_JUSTAS]	0.656 ± 0.051 kcal/mol
SAGGSAGGSEWTIESIRPRPDGSLIARVRPEGVNVSVEVEFDTLEELLAFAKLLEELGGKVTGSAGGSAGGS [r20_177_TrMRF]	1.82 ± 0.058 kcal/mol
SAGGSAGGSAGGNFKITEPVEEYPNPNGNPIKVFTFKNPDDGPEFTFIFMPNGNWQFIPSAGGSAGGSAGGS [r10_1123_TrROS]	0.77 ± 0.12 kcal/mol
SAGGSAGGSAGGMLFHFEIKDPNSDKEYEVLVEKPPSGKVLVTILKDNKEEVKVLPLELFSAGGSAGGSAGG [r11_952_JUSTAS]	-0.29 ± 0.31 kcal/mol
SAGGSAETITVMIPPNFLKKLKDQGIKIPPGYPWITITVTYNPDGKIKIKVQIQPMPPVSPEDMKKSAGGSA [r15_322_TrROS]	2.29 ± 0.34 kcal/mol
SMKIKIKVETNPNGEKKIEIEIELKEEDIEFDEGMTLEERKEKLRELAEELAKKLKEEGKEVKIVEIEVESA [r9_751_TrROS_Hall]	2.1 ± 0.17 kcal/mol
SAGGSAGGSKMRERTITFPNAKITIWYHPDGNVRMEVMNPGNGKPKREIWMKPGDIEEILKKFSAGGSAGGS [r20_129_TrROS]	2.32 ± 0.049 kcal/mol
SAGGSAGGIKYRVMVHNPESGRWHRIDDIEIDPPDGRIKIRFPGNGKEITIPPGYPIMISPDMLSAGGSAGG [r6_885_TrROS]	0.795 ± 0.071 kcal/mol
SAGGMYKVKIYFEDTKEEIEIEASAEEVLEAIKNGDLDALKKLFPGAKIVKIEVEKVEPEPEEEEEEESAGG [r13_629_TrROS_Hall]	3.44 ± 0.29 kcal/mol
SAGKKTIMIFIPGNMPLDTLKSALRNLPPNVEIHIMYPGQMQTITYDPDDIEIELPPGFPNFYIMIEVPSAG [r5_373_TrROS]	2.72 ± 0.057 kcal/mol
SAGGSAGGSKKVKIIEIDLKDMSPEEILELIKKEKVDAIIIKSDTPEAKRLAEKLKEAGFKVISAGGSAGGS [r12_610_TrROS_Hall]	2.05 ± 0.059 kcal/mol
SAGGSAGGSAGGSMPIVRIEVKHPDQKHTFFIPPDMPLEDIADELASQYPNVEVKIEPVSAGGSAGGSAGGS [r4_155_TrROS]	0.935 ± 0.21 kcal/mol
SAGGSAGGSAGLPGAEKARKPKPKVKVKVTLTVLPDGTLVLRVTFEDGTTKTITLKLHPDLLSAGGSAGGSA [r18_192_TrMRF]	3.08 ± 0.24 kcal/mol
